Laboratory results taken from the DeepSol protein solubility set.

assay: soluble on expression in E. coli; label from the status in PepcDB or PDB records

Sequence | soluble on expression in E. coli
MGSDKIHHHHHHSKDKKSTDTKQTETKKTAKTDGTMTDGTYKLEEKNFDDKGWKGFMSIEVKDGKITKANYDYKNKDGKLKSEDADYEKAMKDKVGTGPQEYLKQLSDSLVKGQSASSVEVVSGATHSSDAFINYANQLIQAAQKADTTTISINNLAKMEDGTYKLEEQNYAHGYRVVFSMDVKDGKITKSDYNYVDKDGKLKSDDADYEKNMKAKSGTGPKEYIPALNKSLVEKQDVAAVDTVSGATNSSNQFKIYAAQLQNAAQNGNTDTIKVYNLVEAE | not soluble
MAHHHHHHMLNVVQATRMSKKQEVKAYGPNVKKGDLVYGVVHIFASFNDTFVHVTDMSGRETYVKVTGGMKVKADRDESSPYAAMMAAQDVVARCKECGINALHVKMRAVGGVRTKSPGPGRPGRPPRARPRRDEDWPHRGCHPDPDRLHPPQGFPPWSPPVRSLRPRVLRTAQQSELTLVTICWFPCVCDLLSFYCREEKKHRPQITEAR | not soluble
MGSDKIHHHHHHMEFLIYSLPEEVLREEMLGNFSVALKLIDDFLKKDLPLLQRERLIYEKERIERLLEDYPFTEKEAMEKMREMFEGFSEGEFQYLMNEGVLDYIVVEGEKRFERRFFHNLAFVRSEYRERLRKDERSEKARRILHERLERLIKGEDPKRYRIRARITLKLKETSSKHRVWLPFPKESLQIESVKLLRTSHKSYYISPNDVPQRTIYFEGEDSTFFVEFEYIVREWVNHVDPERVSEKVAGFEEFLKEEPPHIVFTPKLRWLTQTVVGSEVNPYLKAKRIYDWITLNVRYSYVKPYALYENITDFVVNNLKGDCGFQALLFITMCRIAGVPARWQSGWYINPIFGSPHDWALFYVEPYGWLPADLSFGGARRDNESFRSFYFGNLDGFRMVANDGFMKDFDPKTRFVRSDPTDNQVGEAESEEKRLPFESTIEVISFEEV | not soluble
MSLKPIFGRGPSLQLRLFFAVMLSASLMLADSRLGAFSHVRFLLNSLVAPIQYAADLPRVLFDDFYDSISSHQQLRENNQLLKREVLTLKSNLLLLEQYKEENQRLRKLLGSSFLRDEKKVVTEVMAVDTSPYRHQVVIDKGRVDGVYEGQPIINEKGIVGQVTFVAAHNSRVLLLIDPNTAIPVQNIRNDIRVIASGNGQTDQIQLEHIPTSTDIEVGDMLVTSGLGGVYPEGYPVAIVSQVDKDTRREFASIKADPVVEFDRLRYLLLIWPNEDRLQKVMQADPQVLLEEEANAQEGHHHHHH | soluble
MTGCSHRFYYSHMIQTSVRSFEVGEDLASMAVDERISLLRSRMQSISKSGDFSLDYNCKTADKNIIPLSDPLSHVLPWGGLPRG | not soluble
MNSQTTKDIPCFRSYLPDALRLRFEDKLTIRAIAQRLGLSHSTIHTLFQRFLASGIAWPLPDSVSFAQLDAILYANRKKELTEPQIREGSWRKERRTSYSREFKVRLAKQALQPGAVVARIAREHDINNNLLFKWKSQYEDGLLSDDDIQECMPVPVALTDTPEPTRPVTNPFWRNKHDERPEGAPGNVPRCELHLKSGVVKLFDPLTPELLRALIREMKGGIRLEHHHHHH | not soluble
MSLNSSEHKIRITPLGGLGEIGGNISVFETNKDAIIVDIGMSFPDGTMHGVDIIIPDFDYVRKIKDKIRGIVITHAHEDHIGAVPYFFKEFQFPIYATPLALGMISNKFEEHGLKAERKWFRPVEKRRVYEIGEFDIEWIHITHSIIDASALAIKTKAGTIIHTGDFKIDQTPIDGYPTDLGRLAYYGEEGVLCLLSDSTNSYKEGYTKSESSVGLTFDQIFARTKGRVIMSTFSSNIHRVYQAITYGLKYGRKVCVIGRSMERNLYTTMELGYIKLDRKIFIDADEVSKYKDNEVLIVTTGSQGETMSALYRMATDEHKFIKIKPTDQVIISAKAIPGNEASVSAVLDYLLKAGAKVAYQEFSEIHVSGHASIEEQKLMLTLTKPKFFLPVHGEYNHITKHKETAMKCGIPERNIYLMSDGDQVELEGHHHHHH | soluble
MTLPDSKKDQTARHVAILQESYRHYTGRYLFDPKLGASEAIVWLEQAPFALVSHGTQPDPIFNYGNQTALQLFGMTWDEFTRMPSRLSAEPVDRAERTRLLDHVSRDGYIDDYTGVRIAADGRRFLIRHATVWNLLDESGRFYGQAAMIPEWEVLQPVFTAD | not soluble
